Consider 4 substances from publication PMC3402383.

In test [1] the target is human complement protein C4b (human) (UniProt P0C0L4). Kind of test: ELISA; C3b or C4b (1 µg) immobilised in microtiter wells in PBS pH 7.2; up to 1 µM His-tagged Lig protein in 2% BSA-PBS pH 7.2, 37°C, 1 h; detected with anti-His antibody; apparent Kd = concentration of LigB that gives half-maximal binding. For orientation: ELISA stands for enzyme-linked immunosorbent assay.

For test [2], the target named is human complement protein C3b (human) (UniProt P01024). Described as above.
Sequence of human complement protein C3b (human) (P01024 23-667, chain 1 of 2): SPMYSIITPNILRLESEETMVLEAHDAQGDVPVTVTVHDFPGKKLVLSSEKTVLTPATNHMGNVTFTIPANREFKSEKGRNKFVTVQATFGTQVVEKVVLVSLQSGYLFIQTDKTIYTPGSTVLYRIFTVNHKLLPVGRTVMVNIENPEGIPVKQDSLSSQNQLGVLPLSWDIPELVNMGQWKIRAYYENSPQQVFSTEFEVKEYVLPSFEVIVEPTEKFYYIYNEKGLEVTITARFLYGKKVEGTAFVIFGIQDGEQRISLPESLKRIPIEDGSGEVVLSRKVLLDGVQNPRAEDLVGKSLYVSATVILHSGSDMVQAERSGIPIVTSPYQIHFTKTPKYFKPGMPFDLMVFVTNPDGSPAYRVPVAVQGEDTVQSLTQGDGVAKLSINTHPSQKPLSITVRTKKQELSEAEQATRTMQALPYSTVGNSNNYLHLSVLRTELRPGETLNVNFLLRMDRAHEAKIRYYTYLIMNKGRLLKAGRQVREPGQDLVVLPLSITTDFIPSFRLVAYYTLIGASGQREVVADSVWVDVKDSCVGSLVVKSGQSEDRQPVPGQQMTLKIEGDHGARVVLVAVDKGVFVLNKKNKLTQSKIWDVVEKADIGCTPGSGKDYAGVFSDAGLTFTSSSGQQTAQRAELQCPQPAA
Sequence of human complement protein C3b (human) (P01024 749-1663, chain 2 of 2): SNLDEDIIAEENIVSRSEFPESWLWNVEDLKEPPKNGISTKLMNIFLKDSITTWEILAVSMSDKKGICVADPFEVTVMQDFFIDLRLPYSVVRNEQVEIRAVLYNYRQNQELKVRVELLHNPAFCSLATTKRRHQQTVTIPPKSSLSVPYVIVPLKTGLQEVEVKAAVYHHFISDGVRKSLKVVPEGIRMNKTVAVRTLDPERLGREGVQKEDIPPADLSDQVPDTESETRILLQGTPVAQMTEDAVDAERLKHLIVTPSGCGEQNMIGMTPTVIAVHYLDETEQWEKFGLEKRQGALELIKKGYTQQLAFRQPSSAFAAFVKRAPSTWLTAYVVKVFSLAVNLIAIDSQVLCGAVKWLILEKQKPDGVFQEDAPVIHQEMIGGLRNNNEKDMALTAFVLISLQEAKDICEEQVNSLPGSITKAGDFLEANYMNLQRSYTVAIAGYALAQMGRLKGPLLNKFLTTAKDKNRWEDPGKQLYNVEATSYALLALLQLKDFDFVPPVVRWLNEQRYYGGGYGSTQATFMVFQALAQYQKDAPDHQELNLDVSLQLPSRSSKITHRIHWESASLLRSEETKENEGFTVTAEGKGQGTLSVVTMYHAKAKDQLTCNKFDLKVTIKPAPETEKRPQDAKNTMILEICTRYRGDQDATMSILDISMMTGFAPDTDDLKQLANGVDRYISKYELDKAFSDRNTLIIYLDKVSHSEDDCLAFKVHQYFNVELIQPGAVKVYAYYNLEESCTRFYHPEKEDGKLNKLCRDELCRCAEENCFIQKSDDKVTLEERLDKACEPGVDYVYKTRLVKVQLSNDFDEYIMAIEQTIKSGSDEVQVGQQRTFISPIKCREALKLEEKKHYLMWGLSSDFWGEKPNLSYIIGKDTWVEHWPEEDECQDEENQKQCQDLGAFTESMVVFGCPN
For test [3] the target is unchanged. Conditions: scale: % of complement activity in untreated serum.
In test [4] the target is human complement protein C4b (human) (UniProt P0C0L4).

Sequence of human complement protein C4b (human) (P0C0L4 20-675, chain 1 of 3): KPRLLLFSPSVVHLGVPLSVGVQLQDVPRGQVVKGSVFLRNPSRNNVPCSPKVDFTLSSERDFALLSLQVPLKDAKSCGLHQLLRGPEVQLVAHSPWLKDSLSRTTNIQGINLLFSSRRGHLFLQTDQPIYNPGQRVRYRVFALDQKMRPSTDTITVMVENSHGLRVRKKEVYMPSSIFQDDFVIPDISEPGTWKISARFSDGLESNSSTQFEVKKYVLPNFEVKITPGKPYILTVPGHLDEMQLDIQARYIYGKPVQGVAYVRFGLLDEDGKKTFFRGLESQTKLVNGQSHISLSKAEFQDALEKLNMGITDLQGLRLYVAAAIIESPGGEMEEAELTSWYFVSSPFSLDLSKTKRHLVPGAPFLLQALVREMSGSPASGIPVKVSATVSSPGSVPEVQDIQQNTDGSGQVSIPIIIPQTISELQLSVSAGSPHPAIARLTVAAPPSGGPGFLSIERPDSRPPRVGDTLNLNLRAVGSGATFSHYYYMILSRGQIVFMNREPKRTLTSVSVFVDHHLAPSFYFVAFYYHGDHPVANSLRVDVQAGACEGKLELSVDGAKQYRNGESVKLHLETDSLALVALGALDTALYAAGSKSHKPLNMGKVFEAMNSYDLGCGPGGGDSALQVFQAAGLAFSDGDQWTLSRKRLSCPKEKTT
Sequence of human complement protein C4b (human) (P0C0L4 757-1446, chain 2 of 3): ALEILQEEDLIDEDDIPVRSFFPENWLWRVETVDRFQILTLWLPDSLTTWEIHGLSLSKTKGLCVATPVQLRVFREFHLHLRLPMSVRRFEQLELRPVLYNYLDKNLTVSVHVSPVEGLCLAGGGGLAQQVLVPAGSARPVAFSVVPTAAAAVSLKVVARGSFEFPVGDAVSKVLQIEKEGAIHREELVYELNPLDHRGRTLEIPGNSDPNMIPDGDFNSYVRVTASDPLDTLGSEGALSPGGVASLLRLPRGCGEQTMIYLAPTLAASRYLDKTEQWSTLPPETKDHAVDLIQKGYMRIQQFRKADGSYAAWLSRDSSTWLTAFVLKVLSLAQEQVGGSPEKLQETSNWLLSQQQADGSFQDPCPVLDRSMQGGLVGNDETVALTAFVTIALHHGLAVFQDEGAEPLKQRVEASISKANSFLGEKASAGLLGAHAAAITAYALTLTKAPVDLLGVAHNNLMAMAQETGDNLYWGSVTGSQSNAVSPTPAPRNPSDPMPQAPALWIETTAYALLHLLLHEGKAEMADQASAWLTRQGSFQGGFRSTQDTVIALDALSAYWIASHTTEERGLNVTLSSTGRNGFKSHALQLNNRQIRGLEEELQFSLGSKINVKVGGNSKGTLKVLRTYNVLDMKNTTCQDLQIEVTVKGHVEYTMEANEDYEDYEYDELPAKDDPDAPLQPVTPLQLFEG
Sequence of human complement protein C4b (human) (P0C0L4 1454-1744, chain 3 of 3): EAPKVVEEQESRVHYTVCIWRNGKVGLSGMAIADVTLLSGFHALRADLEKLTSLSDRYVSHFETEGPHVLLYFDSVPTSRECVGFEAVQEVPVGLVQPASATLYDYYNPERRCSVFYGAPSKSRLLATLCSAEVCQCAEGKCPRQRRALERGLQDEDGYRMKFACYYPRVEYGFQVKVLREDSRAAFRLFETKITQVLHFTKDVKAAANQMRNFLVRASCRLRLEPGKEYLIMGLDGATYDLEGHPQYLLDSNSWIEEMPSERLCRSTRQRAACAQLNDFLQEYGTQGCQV

For the substance LigB9-11 (domain or fragment), the figures for the Kd in test [1] and in test [2] were 67 nM and 69 nM, respectively. For the same substance, in test [3], the complement-mediated hemolysis of rabbit erythrocytes (alternative pathway) after preincubation of normal human serum with the protein, as % of complement activity in untreated serum turned out to be 57.8. The complement-mediated hemolysis of antibody-sensitized sheep erythrocytes (classical pathway) after preincubation of normal human serum with the protein, as % of untreated serum (% of untreated serum) in test [4] was 64.

Take “LigB7′-12 (from UniProt C0J1Q6 1-1889) (domain or fragment)”: the Kd in test [1] was determined as 69 nM; in test [2], 43 nM.

With LigB9-12 (domain or fragment), the Kd in test [1] is 57 nM; in test [2] it was 69 nM.

LigB8-12 (domain or fragment) had a complement-mediated hemolysis of rabbit erythrocytes (alternative pathway) after preincubation of normal human serum with the protein, as % of complement activity in untreated serum in test [3] of 38.9. In addition, in test [4], the complement-mediated hemolysis of antibody-sensitized sheep erythrocytes (classical pathway) after preincubation of normal human serum with the protein, as % of untreated serum (% of untreated serum) was determined as 71.4.
